Measured values reported in patent publication US9364516B2, “Treatment of fibrosis-related disorders using fibronectin binding proteins and polypeptides” (priority 2010, dated 2016).

Experiments:
[1] = tested on: type I collagen; assay: ELISA binding of pUR4 to ECM proteins: collagen I; conditions: plates coated 10 μg/mL, FIG. 7
Procedure: FIG. 7 is a graph depicting the binding of pUR4 to ECM Proteins. 96-well plates were coated with 10 μg/mL type I collagen (COL), denatured type I collagen (dCOL), fibronectin (FN), laminin (LN), vitronectin (VN), or fibrinogen (FG) at 4° C. overnight. pUR4 was added to the wells and serially diluted. Bound pUR4 was detected as described herein. Measurements were done at 405 nm on a Wallac 1420 multilabel counter. Data represents the average of duplicate determinations, and the error bars the range.
96-well tissue culture plates were coated with 10 μg/mL type I collagen, fibronectin, laminin, fibrinogen, or vitronectin overnight at 4° C. Denatured collagens were generated as described (George et al., “Fibronectins are Essential for Heart and Blood Vessel Morphogenesis but are Dispensable for Initial Specification of Precursor Cells,” Blood 90:3073-3081 (1997), which is hereby incorporated by reference in its entirety). Plates were blocked with 1% bovine serum albumin (BSA) in Tris buffered saline (TBS) for 1 hour, then washed with TBS. pUR4 was serially diluted into coated wells, then incubated at room temperature for 90 min. Wells were washed with TBS containing 0.1% Tween 20. […] After washing, peroxidase activity was quantified by using 2,2′-azino-bis-(3-ethylbenthiazoline-[…]). […]

[2] = tested on: left carotid artery of FVB mice; assay: Carotid ligation model, quantitative immunohistochemistry; format: in vivo, mouse
Procedure: Sections selected from the first millimeter of the carotid artery in each group were used for immunohistochemistry (IHC). Endogenous peroxidase activity was blocked with 3% H2O2, followed by incubation with Dako serum-free blocking solution (Dako; Glostrup, Denmark). The primary antibodies used were: polyclonal anti-fibronectin (Chemicon/Millipore, Billerica, Mass.), polyclonal anti-collagen type I (LF-67; a gift from Dr. Fisher, NIH, Bethesda, Md.), monoclonal anti-proliferating cell nuclear antigen (PCNA) (Sigma, St. Louis, Mo.), polyclonal anti-smooth muscle myosin heavy chain (SMMHC) (Biomedical Technologies Inc., Stoughton, Mass.), monoclonal smooth muscle-actin (SM-actin) (Dako), anti-leukocyte common antigen, CD45 (BD Pharmingen, San Jose, Calif.), monoclonal anti-intercellular adhesion molecule-1 (ICAM-1) (BD Pharmingen), and polyclonal anti-vascular cell adhesion molecule-1 (VCAM-1) (Santa Cruz Biotechnology, Santa Cruz, Calif.). Antigen retrieval for anti-fibronectin and anti-collagen type I antibodies was performed by incubating sections with proteinase K in 0.05M Tris-HCL buffer. Antigen retrieval for CD 45 antibody was performed by incubating sections with 10 mM citrate buffer (pH=6) at 120° C. Sections were then incubated with appropriate biotinylated secondary antibodies followed by avidin-biotin immunoperoxidase system (Vector Laboratories, Burlingame, Calif.). Liquid DAB Substrate Chromogen system (Dako) or Vector Red (Vector) was used for detection. PCNA, CD45, ICAM-1, and VCAM-1-immunostained sections were counterstained with hematoxylin.
Quantitative IHC analysis was performed using Image-Pro Plus software. Data from 3-5 mice were averaged, and the average values ±s.e.m. determined. For fibronectin, collagen type I, SMMHC, and SMα-actin, color digital images were captured using a 40× objective and transformed into gray scale. Sixteen fields of view of equal size per section in the media or adventitia were randomly chosen, and the mean of the optical densities from the sixteen fields of view was determined. Three sections were analyzed per animal. For quantitative comparison of leukocyte infiltration and cell adhesion molecule expression, images were acquired using a 60× objective. The CD45, ICAM-1, and VCAM-1-positive areas were obtained using an automated programmed segmentation procedure in ImagePro. The intima plus media or adventitial regions were traced manually. The percent of the positively stained area to the total traced area was determined. For evaluation of proliferating cells, the percent of PCNA (+) cells to total cells was determined by counting cell numbers in PCNA-stained sections that had been counterstained with hematoxylin. The percent positive cells is reported as the proliferation index. To determine the SMC density, sections were stained with hematoxylin, and cells present in the media were counted. The data is expressed as number of cells/μm^2.
Blood flow in the left carotid artery of 10-week-old FVB/NJ (FVB) mice was reduced by ligating the external and internal carotid arterial branches as described (Korshunov et al., “Flow-Induced Vascular Remodeling in the Mouse: A Model for Carotid Intima-Media Thickening,” Arterioscler. Thromb. Vasc. Biol. 23:2185-2191 (2003), which is hereby incorporated by reference in its entirety). Mice were anesthetized with an intraperitoneal injection of ketamine (80 mg/kg) and xylazine (5 mg/kg) as described in the above-cited referenced. The left common carotid artery was dissected free of the surrounding connective tissue and 50 μL of F-127 pluronic gel (BASF) containing 20 μmol/L pUR4 or III-11C was applied around the carotid artery. […]

B1: pUR4: 49-mer peptide derived from the bacterial F1 adhesin, His tagged, SEQ ID NO:1; class I fibronectin polymerization inhibitor (peptide)
chain: MRGSHHHHHHGSKDQSPLAGESGETEYITEVYGNQQNPVDIDKKLPNETGFSGNMVETEDTKLN
modifications: His tag; Bacterial adhesin derived peptide pUR4
- binding to collagen I [1]: does not bind
- accumulation of collagen I and fibronectin in the media and adventitia ([2]; 7 and 14 days after surgery, vs control animals): dramatic reduction
- SMC dedifferentiation (SM α-actin and SM myosin heavy chain staining in the media) ([2]; 7 days after ligation): prevented
- adhesion molecule expression (ICAM-1 and VCAM-1 levels in the vessel wall) ([2]; 7 days after ligation): dramatic decrease
- decrease of leukocyte (CD45) infiltration into the intima, media, and adventitia ([2]; 7 days after surgery): 80%
- increased fibronectin deposition ([2]; 7 days after surgery): totally prevented
- prevention of increase in cell density in the media ([2]; 7 days after surgery): 75%
- cell density in the media ([2]; 7 days after surgery, ligated 6.7×10^−3, sham 5.0×10^−3): 5.3×10^−3 cells/mm^2
- reduction in cell proliferation (PCNA) in the adventitia ([2]; 7 days post ligation): 61%
- reduction in cell proliferation (PCNA) in the intima-media ([2]; 7 days post ligation): 70%
- fibronectin and collagen levels vs control peptide-treated animals ([2]; 14 days after surgery): still decreased
